# PMC7801473 (2021)
# How the values were obtained:
# [1] = target: ASC^CARD (self-interaction; state of second copy not shown); assay: M2H (mammalian two-hybrid, luciferase); conditions: HEK293T cells; luciferase normalized to Renilla; parent: est. 4.2; read off a plot
# [2] = target: NLRP1^CARD (human) (UniProt Q9C000); assay: SEC-MALS; Superdex 200 10/30, 500 mM NaCl, 20 mM CHES-HCl pH 9.0, 500 uL at 0.5 mg/mL, 0.5 mL/min; monomer to dimer
# [3] = target: MBP-ASC^CARD (human) (UniProt Q9ULZ3); assay: SEC; His-tagged MBP-ASC^CARD incubated with a threefold concentration of untagged NLRP1^CARD for 4 h, first purified by Ni-affinity chromatography, then Superdex gel filtration; complex in the void (~9 mL); also run at 0.15, 0.5 and 1.0 M NaCl (complex decreased with salt); ratio from gray scales of the PAGE gel
# Chain of MBP-ASC^CARD (human) (Q9ULZ3 95-195): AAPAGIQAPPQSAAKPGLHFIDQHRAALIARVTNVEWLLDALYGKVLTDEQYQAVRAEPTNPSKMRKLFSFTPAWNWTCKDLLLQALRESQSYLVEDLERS
Substance,response (fold of negative control) [1],stoichiometry N [2],stoichiometry N (NLRP1^CARD : ASC^CARD) [3]
ASC^CARD (M2H fusion) (from UniProt Q9ULZ3-1) D134K,1.4,–,–
ASC^CARD (M2H fusion) (from UniProt Q9ULZ3-1) R125A; T127A,1.2,–,–
ASC^CARD (M2H fusion) (from UniProt Q9ULZ3-1) R160E,1.2,–,–
ASC^CARD (M2H fusion) (from UniProt Q9ULZ3-1) W169G; N170A,1.2,–,–

# Now from value to substance:
response (fold of negative control) [1],stoichiometry N [2],stoichiometry N (NLRP1^CARD : ASC^CARD) [3],Substance
1.2,–,–,ASC^CARD (M2H fusion) (from UniProt Q9ULZ3-1) D143A; E144A
1.2,–,–,ASC^CARD (M2H fusion) (from UniProt Q9ULZ3-1) N128A; E130R
1.3,–,–,ASC^CARD (M2H fusion) (from UniProt Q9ULZ3-1) R119D
–,2,0.5,NLRP1^CARD (from UniProt Q9C000-1 1397-1462) (domain or fragment)
